Source: PMC3340179

Molecular target: STAT3-GFP (STAT3-EGFP fusion, unphosphorylated) (UniProt P40763)
Experiment: MST

Chain of STAT3-GFP (STAT3-EGFP fusion, unphosphorylated) (P40763 whole entry, the tested form may be a part): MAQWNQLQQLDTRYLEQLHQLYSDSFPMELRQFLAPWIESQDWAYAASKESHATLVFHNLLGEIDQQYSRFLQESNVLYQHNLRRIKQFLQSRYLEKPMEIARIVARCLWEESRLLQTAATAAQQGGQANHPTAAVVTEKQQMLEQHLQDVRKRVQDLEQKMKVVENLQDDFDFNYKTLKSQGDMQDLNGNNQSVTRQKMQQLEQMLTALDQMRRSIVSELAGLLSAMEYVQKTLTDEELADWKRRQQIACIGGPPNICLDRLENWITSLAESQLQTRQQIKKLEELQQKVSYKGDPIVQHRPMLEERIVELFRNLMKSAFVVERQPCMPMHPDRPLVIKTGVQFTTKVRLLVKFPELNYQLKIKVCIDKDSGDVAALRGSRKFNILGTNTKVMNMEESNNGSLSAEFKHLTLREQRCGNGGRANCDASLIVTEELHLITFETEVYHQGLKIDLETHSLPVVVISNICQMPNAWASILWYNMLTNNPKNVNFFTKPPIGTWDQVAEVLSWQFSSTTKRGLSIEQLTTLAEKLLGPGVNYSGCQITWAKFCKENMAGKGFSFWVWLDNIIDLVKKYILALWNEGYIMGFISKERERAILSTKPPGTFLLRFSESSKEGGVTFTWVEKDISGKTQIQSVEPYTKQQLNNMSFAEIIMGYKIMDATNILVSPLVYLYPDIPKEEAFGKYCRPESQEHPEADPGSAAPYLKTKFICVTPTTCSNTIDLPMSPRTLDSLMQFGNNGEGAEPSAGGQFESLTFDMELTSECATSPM

Sequence | Kd
GTTTCCGGGAAAGCAGTAGGTTTCCGGGAAAG (double strand) [GAS] | 37.9 µM
AAAACAAAACGAAACAAACAAACTA (double strand) [S+100] | 23.3 µM
